PMC3667669 (2014)
Where no end group is shown, it is not given here.

Target: Cdc42 (Homo sapiens, UniProt P60953)
Assay: fluorescence intensity titration

Cdc42, sequence (P60953 1-188): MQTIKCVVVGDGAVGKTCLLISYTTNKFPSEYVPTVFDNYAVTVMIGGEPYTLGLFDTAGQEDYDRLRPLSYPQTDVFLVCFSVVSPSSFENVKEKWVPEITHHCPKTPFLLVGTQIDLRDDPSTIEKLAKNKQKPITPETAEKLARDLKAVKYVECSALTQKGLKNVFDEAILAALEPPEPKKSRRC

Row | Kd [nM] | Binder
1 | 186 | WASP CBD (Cdc42 binding domain) (protein, also: MBP fusion, mero87 dye label, site not given here) KKKISKADIGAPSGFKHVSHVGWDPQNGFDVNNLDPDLRSLFSRAGISEAQLTDAETSK
2 | 144 | WASP CBD (Cdc42 binding domain) (protein, also: MBP fusion, mero61 dye label, site not given here) KKKISKADIGAPSGFKHVSHVGWDPQNGFDVNNLDPDLRSLFSRAGISEAQLTDAETSK
